Assay results taken from paper PMC7736253 (Nature plants, 2020).

Assays:
[1] = biological target: Rubisco holoenzyme (native Rubisco purified from Chlamydomonas cells) (Chlamydomonas reinhardtii (endogenous in strain cMJ030)) (UniProt P00877); assay: cryo-EM structure
[2] = biological target: Rubisco holoenzyme (native Rubisco purified from Chlamydomonas cells) (Chlamydomonas reinhardtii (endogenous in strain cMJ030)) (UniProt P00877); assay: SPR
cryo-EM structure = biological target: the molecule itself; assay: cryo-EM structure

EPYC1_(106-135) peptide
stoichiometry N [1]: < 8

EPYC1_(49-72) peptide
Kd [2]: 3 mM | stoichiometry N [1]: < 8

B1: Rubisco large subunit (in the native holoenzyme) (natural protein, UniProt P00877 3-475, looked up)
chain: PQTETKAGAGFKAGVKDYRLTYYTPDYVVRDTDILAAFRMTPQLGVPPEECGAAVAAESSTGTWTTVWTDGLTSLDRYKGRCYDIEPVPGEDNQYIAYVAYPIDLFEEGSVTNMFTSIVGNVFGFKALRALRLEDLRIPPAYVKTFVGPPHGIQVERDKLNKYGRGLLGCTIKPKLGLSAKNYGRAVYECLRGGLDFTKDDENVNSQPFMRWRDRFLFVAEAIYKAQAETGEVKGHYLNATAGTCEEMMKRAVCAKELGVPIIMHDYLTGGFTANTSLAIYCRDNGLLLHIHRAMHAVIDRQRNHGIHFRVLAKALRMSGGDHLHSGTVVGKLEGEREVTLGFVDLMRDDYVEKDRSRGIYFTQDWCSMPGVMPVASGGIHVWHMPALVEIFGDDACLQFGGGTLGHPWGNAPGAAANRVALEACTQARNEGRDLAREGGDVIRSACKWSPELAAACEVWKEIKFEFDTIDKL
stoichiometry N (cryo-EM structure): 8
